Blank lines part the entries; values can stand above or below the binder they belong to.
What was measured:
L104EA29YIg [1] = target: T1, L104EA29YIg (human, UniProt P16410 38-161; P01857 99-330 = IgG part, A29Y; L104E); assay: flow cytometry on human CD80-transfected CHO cells
T1 construct: extracellular domain;domain: hinge, CH2 and CH3 regions of IgC1; Same mobility as dimeric CTLA4Ig; Positions count from methionine +1, not on the UniProt precursor; also called double-site CTLA4 mutant molecule; ATCC PTA-2104
T1 sequence (P16410 other isoform, or with tags, fused parts or gaps A29Y/L104E): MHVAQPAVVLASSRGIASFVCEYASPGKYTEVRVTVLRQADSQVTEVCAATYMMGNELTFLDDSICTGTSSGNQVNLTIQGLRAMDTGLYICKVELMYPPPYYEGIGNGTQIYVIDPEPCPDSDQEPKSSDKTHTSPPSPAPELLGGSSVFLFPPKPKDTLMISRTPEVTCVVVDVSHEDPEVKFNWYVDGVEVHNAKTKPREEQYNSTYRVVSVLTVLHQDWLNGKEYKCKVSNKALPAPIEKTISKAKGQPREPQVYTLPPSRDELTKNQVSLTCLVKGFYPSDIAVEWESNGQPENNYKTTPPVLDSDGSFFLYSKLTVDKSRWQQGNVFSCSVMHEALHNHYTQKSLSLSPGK
Procedure: (§1) Bound immunoglobulin fusion protein was detected using fluorescein isothiocyanate-conjugated goat anti-human immunoglobulin.
(§2) Binding on a total of 5,000 viable cells was analyzed (single determination) on a FACScan, and mean fluorescence intensity (MFI) was determined from data histograms using PC-LYSYS.

L104EA29YIg [2] = target: T1, L104EA29YIg; assay: flow cytometry on human CD86-transfected CHO cells
Procedure: as §1, §2

binding result (L104EA29YIg [1]): binds
B1: human CD80 on stably transfected CHO cells (ligand, UniProt P33681 35-288, looked up)
chain: VIHVTKEVKEVATLSCGHNVSVEELAQTRIYWQKEKKMVLTMMSGDMNIWPEYKNRTIFDITNNLSIVILALRPSDEGTYECVVLKYEKDAFKREHLAEVTLSVKADFPTPSISDFEIPTSNIRRIICSTSGGFPEPHLSWLENGEELNAINTTVSQDPETELYAVSSKLDFNMTTNHSFMCLIKYGHLRVNQTFNWNTTKQEHFPDNLLPSWAITLISVNGIFVICCLTYCFAPRCRERRRNERLRRESVRPV
notes: whole, on cells; also called CD80-positive CHO cells; CD80+ CHO cells

binding result (L104EA29YIg [2]): binds
B2: human CD86 on stably transfected CHO cells (ligand, UniProt P42081 24-329, looked up)
chain: APLKIQAYFNETADLPCQFANSQNQSLSELVVFWQDQENLVLNEVYLGKEKFDSVHSKYMGRTSFDSDSWTLRLHNLQIKDKGLYQCIIHHKKPTGMIRIHQMNSELSVLANFSQPEIVPISNITENVYINLTCSSIHGYPEPKKMSVLLRTKNSTIEYDGVMQKSQDNVTELYDVSISLSVSFPDVTSNMTIFCILETDKTRLLSSPFSIELEDPQPPPDHIPWITAVLPTVIICVMVFCLILWKWKKKKRPRNSYKCGTNTMEREESEQTKKREKIHIPERSDEAQRVFKSSKTSSCDKSDTCF
notes: whole, on cells; also called CD86-positive CHO cells; CD86+ CHO cells

Source: patent publication US20020039577A1 (published 2002)
